Laboratory results: publication PMC7990223

Tests used:
human ACE2 (human) = human ACE2 (human) (UniProt Q9BYF1); assay: flow cytometry on cells
mouse ACE2 (mouse) = mouse ACE2 (mouse) (UniProt Q8R0I0); assay: flow cytometry on cells
mouse ACE2 (mouse), sequence (Q8R0I0 18-805): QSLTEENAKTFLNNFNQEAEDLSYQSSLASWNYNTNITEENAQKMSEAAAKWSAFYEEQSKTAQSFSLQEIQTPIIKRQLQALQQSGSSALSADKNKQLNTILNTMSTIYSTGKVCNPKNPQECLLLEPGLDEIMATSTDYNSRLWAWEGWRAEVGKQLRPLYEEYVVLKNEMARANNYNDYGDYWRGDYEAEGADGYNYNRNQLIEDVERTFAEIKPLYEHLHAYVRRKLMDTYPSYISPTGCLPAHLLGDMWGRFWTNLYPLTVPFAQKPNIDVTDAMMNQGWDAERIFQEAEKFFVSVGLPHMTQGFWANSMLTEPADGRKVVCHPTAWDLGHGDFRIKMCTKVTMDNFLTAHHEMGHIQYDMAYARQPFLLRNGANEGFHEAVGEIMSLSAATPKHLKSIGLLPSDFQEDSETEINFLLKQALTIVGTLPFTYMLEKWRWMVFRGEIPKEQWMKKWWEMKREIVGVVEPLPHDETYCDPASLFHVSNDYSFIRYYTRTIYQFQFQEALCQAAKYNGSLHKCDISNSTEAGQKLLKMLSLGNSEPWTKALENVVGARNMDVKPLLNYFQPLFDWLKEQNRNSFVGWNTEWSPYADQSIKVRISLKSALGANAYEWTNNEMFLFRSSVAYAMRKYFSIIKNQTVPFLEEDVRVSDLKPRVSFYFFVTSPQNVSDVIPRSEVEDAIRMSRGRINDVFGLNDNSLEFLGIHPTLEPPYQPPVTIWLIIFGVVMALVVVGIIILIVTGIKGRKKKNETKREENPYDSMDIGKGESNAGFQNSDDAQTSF

human ACE2 (human), sequence (Q9BYF1 18-805): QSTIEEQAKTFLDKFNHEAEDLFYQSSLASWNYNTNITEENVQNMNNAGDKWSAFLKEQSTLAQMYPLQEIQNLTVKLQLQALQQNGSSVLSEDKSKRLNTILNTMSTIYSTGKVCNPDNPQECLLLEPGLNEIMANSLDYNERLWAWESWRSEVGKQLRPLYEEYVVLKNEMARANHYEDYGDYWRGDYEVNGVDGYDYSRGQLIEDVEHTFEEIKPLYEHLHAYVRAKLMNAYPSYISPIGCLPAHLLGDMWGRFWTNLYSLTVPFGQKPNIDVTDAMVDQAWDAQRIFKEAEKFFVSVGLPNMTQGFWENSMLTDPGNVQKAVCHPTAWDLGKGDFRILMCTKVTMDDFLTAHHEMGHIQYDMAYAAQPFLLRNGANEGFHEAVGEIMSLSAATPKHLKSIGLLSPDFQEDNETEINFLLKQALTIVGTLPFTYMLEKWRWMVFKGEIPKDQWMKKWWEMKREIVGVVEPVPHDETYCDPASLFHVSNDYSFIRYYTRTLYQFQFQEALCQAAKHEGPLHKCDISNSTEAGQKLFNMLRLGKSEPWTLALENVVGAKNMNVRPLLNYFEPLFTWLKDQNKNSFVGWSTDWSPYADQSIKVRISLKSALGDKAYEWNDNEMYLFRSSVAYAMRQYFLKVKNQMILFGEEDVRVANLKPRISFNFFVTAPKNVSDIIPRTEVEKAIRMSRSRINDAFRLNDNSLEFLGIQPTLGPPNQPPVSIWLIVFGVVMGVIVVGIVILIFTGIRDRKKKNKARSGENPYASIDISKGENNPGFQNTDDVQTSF

S1 domain of the SARS-CoV spike protein C-terminally fused with Fc (from UniProt P59594 14-667) (Fc fusion)
percent of ACE2-expressing (zsGreen1+) cells positive for S1-Fc (human ACE2 (human)): 64%
percent of ACE2-expressing (zsGreen1+) cells positive for S1-Fc (mouse ACE2 (mouse)): 40.4%
